# Assay: soluble on expression in E. coli; label from the status in PepcDB or PDB records
row,Sequence,soluble on expression in E. coli
1,MLSEVLLVSAPGKVILHGEHAVVHGKVALAVSLNLRTFLRLQPHSNGKVDLSLPNIGIKRAWDVARLQSLDTSFLEQGDVTTPTSEQVEKLKEVAGLPDDCAVTERLAVLAFLYLYLSICRKQRALPSLDIVVWSELPPGAGLGSSAAYSVCLAAALLTVCEEIPNPLKDGDCVNRWTKEDLELINKWAFQGERMIHGNPSGVDNAVSTWGGALRYHQGKISSLKRSPALQILLTNTKVPRNTRALVAGVRNRLLKFPEIVAPLLTSIDAISLECERVLGEMGEAPAPEQYLVLEELIDMNQHHLNALGVGHASLDQLCQVTRARGLHSKLTGAGGGGCGITLLKPGLEQPEVEATKQALTSCGFDCLETSIGAPGVSIHSATSLDSRVQQALDGL,soluble
2,MGSDKIHHHHHHMDKFLYIAMSGAKQGMNALAVSANNLANANTDGFKADMVQARSMQAFGEGLPTRVFSMMESPGSNFNGGPIKTTGRDLDIAVKGDGWLAVQAADGSEGYTRAGSLKIDSTGMLLNSSNRPVMGASGPIVLPIPVEKIEISANGIISVRPQGATAEVIEEVARIKLVNPGNENLMRGEDGLFRLIAGGNAPNDPGVQVESGAVEGSNVNSVHEMVAMIDIQRQYEMQVKMMKNAEEIDRASTSLMRIS,not soluble
3,MGSDKIHHHHHHMKVVFLICNPAAGGGRAGKIWNRVEDLLKKHGIDHKFAFTERPGHAMEISKKAFKEGYRRIAAFGGDGTVNEMVNGIFLNGYDLREVVFGWIPFGSGKDWARTIGVPLEIEEAIKMLKDGKEFVQDLGVGEYEKASGEIEKRAFVNVAGLFFDGFVTYRTNLLKRKNRVSYFSRIFSSIIEYDPPTARIQIDEKVWEKRVFSMNVGICKYNGGGMNQLPHAVPDDGLLAVTVINDIGKLRILANLHRVFNGKLLEHPGVEGYQAKKVVVEFQRDEPVEFDGESFWAKKIFFSIIPGVIRVLVKK,not soluble
4,MSKRLYQQIETLWDYLQLHQQPNVADLILVLGSNDVRVAEHAAKLYHQGLAPYVLFSGGFGRFTQGVFNHNEAETFAAIAKDAGVPEHAILLETQSTNSGENLHFSHQLLVQQARPAKRILLVQKPYMERRAYATFMQQWPESVESVQVTSPAGSFFDYLTSELTSDFVLNAMLGDFERIRDYPALGFQITQPIPEPVMQAYQALLPLKVNLEMSLEHHHHHH,not soluble
5,MSINKIEEDRDISSDLEMKAKMYLVHRMDKAGPLTVKDVRILINKLSKDLQKNQLTLIDCQLIINLVESRFTLVKQATRYLQFFLNKLDGKSINPILIPLSNKPFWQNEPHPFDHYRSTDQLPEKVDIVIIGAGLTGASTAYHLIDAVKKRHLTVVLLDKGNPATEASGRNGGNFELLPENSVGIYSGLVSERFRFLKRCYPHVHPSILQIESEYHASLVFQFALKNRNRFKEIARKERIYCDLAAKGWLYIAHTEEEEQAICDEVTLAAQHGERIYIWSRKKIREQFGINSKFIGRFIPDDGTYNPFKYTCCLIKAAIKSGIKLYTFVKVQQIKSIDTEYHQLKTNMGLLKARQVIVATNAFTSELLPELRAIKPHQSQIAITDSTPDYCKGRLITSEDGPLYLNQPRVRSKNGLVPLLIGAGDDRPMKNPYYRKRSKKVHDLIVQQRDKYFPNLKGRPFSTEWVGALAFTPDQLPAIGYLSPGIIIVMCCNGYGGSYTTAAGLAAAEIALTGKNPPWLPADVFSPKRLLSDKPLFWEDSDSLWRIGKTLCTTLNNLNQLLAESLSYQSMYQPYSTISLLPHGHQEKNCNLDPLRVMHQLAIFRTFAYQELEMLIRYTSPVCLSKGEILFKQGDAGHSCFILIQGKINLYYEHAEGFTSMVAELEAGSVFGQMALFLENKRMATCQATENCSMLEIMVEPCKSLFIQQQALGIKLLRLLNQGVIDALHKLNKRLKYT,not soluble
6,MSLARTNVMIAETFPEYLVDHNLIDCEVESLCNGMVRYEKRPARRRDGSVAEGLYNAWIIFNNPRQYNSYTTEMVKATILAFRRASVDREVNAVVFTGVGDKAFCTGGNTKEYAEYYAGNPQEYRQYMRLFNDMVSSILGCDRPVICRVNGMRIGGGQEIGMACDFSIAQDLAKFGQAGPKHGSAAIGGATDFLPIMIGCEQAMVSGTLCEPFSAHKAARLGIIADVVPALKVGGTFVANPTVVTDRFLDEYGRVVQGEFKTGADFKAGQARIKEGEVDLSLLDEKVEELCAKLLETFPECMTKSLEELRKPKLQAWNLNKENSRAWLALNMMNEARIGFRAFNEGTKETGREIDFVKLRRQLAEGTPWAEELIEEGHHHHHH,soluble
7,MSLDTTALPHTTFEGIPLDGKNKQDIQKIVQQKVEELNKKSLNYVFENNTQTYTWKDLGVEYKEKDIVANIFKEQQGNIIDRYNMRKKAIHGELKREYKLKPQLNSTAYEAFMEDKYNETLKNPVNAELNISGTTVNISESQNGEKIDKEQLAILTKQAIAANTQNIKLPIASIKPERSTEDIQNMGIKQVIAEYSTPMTGRNGSQSFNVNKSANTLSGAIVAPDETFSFNGRVGITDAAHGYKSAAVYLQGKVVQSAGGGVCQVSSTLYGAVLRADLGVVARSNHSMPVHYLPLGQDAAVADYGPDLKFKNNTGHYIYIQAFSDGNRITTRIFGTPTGKNVEVSSKVISNTGNKITAVTYKKVTKDGQVISNGQISKSVYKKEGHHHHHH,not soluble
8,MSLSIFEHFQARYEAAKDEELSIQDFLALCKENKSAYANAAERLLLAIGEPEMIDTSKHSRLSRIFSNRVIARYKTFEDFYGMEEAIEQIVAYLKHAAQGLEERKQILYLLGPVGGGKSSLAEKLKALMQQMPIYVLSANGQRSPVNDHPFCLFDVNEDGELLKQEYGIDRRYLRSIMSPWAAKRLHEFGGDITKFKVVKVRPSILDQIAVAKTEPGDENNQDISSLVGKVDIRKLEHFSQDDPDAYSYSGALCRANQGLMEFVEMFKAPIKVLHPLLTATQEGNYNGTEGLSALPFDGMILAHSNESEWQTFRNNKNNEAFLDRVYIVKVPYCLRVSEEVKIYQKLLDHSELSKAPCAPSTLDLLAQFSVLSRLKVPENSSLFSKMRVYDGETLKDTDPKAKSYQEYRDYAGVDEGMSGLSTRFAFKILSRVFNFDHSEVAANPVHLFYVIEQQVEREQFPQETADRYNEFLKGYLIPRYVEFIGKEIQTAYLESYSEYGQNIFDRYVTYADFWIQDQEYRDPETGQLFDRSALNSELEKIEKTAGISNPKDFRNEIVNFVLRARANNNGQNPVWTSYEKLRTVIEKKMFSNTEDLLPVISFNAKTSSDDQKKHDDFVARMMEKGYTEKQVRLLSEWYLRVRKSSEGHHHHHH,soluble
9,MKFLLAVFLLAVCSLGESKKPKAQKVIYVQKVVPPQKQLSEYDLCKEQCRIESETQSNKERVELLKQEIDRAEQLLAEHNKHVDAPEIAPETYMEAGQVPPMRKASRYDHLKMAANKIVESTSELKNAVTGGGDN,not soluble
10,FPVETVQIPVNDEYAVHGWLAHGMSGHGAVLLVHSMRSNRLEMLGRARFLNNQGYHVLMIDLQAHGETPGDRITFGARESADVAAAVGYLRSTFPHDRIAAIGATLGAAAIVLANPPLKLDAMILESLHPTFAEAVANRLKLHLGNTGEYLQFLLLPYFSFLLDLPVNQLNPVDRIGNIAIPVLFIAGTLDRHTTQSEVKRLYDAALPPKELWIVEGAGHYNMHTFAGKSYEMQIADFLSTYL,not soluble
11,MGSDKIHHHHHHMKVFVTGATGFIGASIARELLKDGCHVRVLARPGSDRRNLDGLDVEVCEGDLCSPESLDRGVKGCEVLYHAAADYRLWTRNPAAMYAANVEGTRHVLDAALRHGVSRVVYTSSVGTLGNPGDGTPGTEATPVTFADMVGDYKKSKFLAEREAETFLARGLPLVIVNPSTPVGPHDVKPTPTGKIIVDFLNRAMPAYLDTGLNIIDVEDCAQGHILAAQHGRIGEKYILGHENLTLRQIFSLLETVTGLAAPKVRLPYLPILAAAYANEALSRITGREPLIPLAGVQMARKFMYFDSSKAVKELGLPQRPAVEALGRAVEWFRANGYVR,not soluble
12,MGSDKIHHHHHHLIYDVVIAGGGPVGLFLACELRLAGLPVLVLEQAEDPGSPLKRLPFGLRGLSAPTLEAFYRRGMLNEIAAPQRAKDDSGSSVPNAAHWMQQQRRPGGHFAGIQFYYDNIDTSKWPYRLPGPAGTSMAVEMEHIESVLTARAIALGVEIRRGLSVDGFDQSEEGVTVHAGSEIFRGRWLVGCDGGRSTVRRIGGFDFVGTDPEFTGYSVQVEMADPEKLKPGRHYTPTGMYTYQKPGTIAMVDFDGGAFHRTQPITLDHVQAVLRHISNTDVTVTALQLATTWTDRAYHATTYRKGRVLLAGDAAHIHSPLGGQGLNLGLGDAMNLGWKLAATVRDDAPAGLLDSYTSERHPVGAQVLDWSRAQVAIMRPSRSSRALEAIMRDLIDTRDGATYFAERVWGTALRYDLGSSHTLVGRSAPDFELIDGTRLGELFTKGRGLLLDFDALPSLQALASRWSDRITYVASDVKDRLGVSAVLVRPDGFVAWAGEASPNHDEATQAASQWFGKPEEEGRSPA,not soluble
13,MLSRVRIGWLLLEDFFRMNEFEELLNSVSEVSTGDVVTAEVISVDNDQANVVIEGTGIEGVLTRRELTNDRDANVADLVKDGETLEVLVLRQVVGKDTDTVTYLVSKKRLEARKAWDKLVGREEEVVTVKGTRAVKGGLSVEFEGLRGFIPASMIDTRFVRNTEQFVGQEFDAKIKEVDPAENRFILSRREVVEAEAIEARKEVFSKLEVGSVVTGKVARLTSFGAFIDLGGVDGLVHVTELSHERNVSPKSVVSVGDEIEVKVLAIDEEAGRVSLSLKATTPGPWDGVEQKLAAGDVIEGKVKRLTDFGGFVEVLPGIDGLVHISQISHKRVENPKDVLSVGQDVTVKVLEVNADAERVSLSIKALEERPANAEGENNEKRQSRPRRPKRQEKRDYELPETQSGFSMADLFGDIEL,not soluble
14,MGSSHHHHHHSSGRENLYFQGMVDADGIYYLGPEGSFTHEAASLFKGKDLKAESTISLVFKRVYERESSIGIVPIENSLEGPVNETLDNLYNYDNIYVIGEIEKKIELVLAARSDNLSQIKRIYSHPHAFNEAREKLKELGFNEYIPVESTSKAAKIVSQDSEAAAICSNFAAKLYNLKVLITISSHNNYTRFIVLSKEMNSNGNKSMILFTVPHKPGALYKVLQVFYEYNINISMIYSRPLKSIPWQYYFYLEYEGGISNREFIEKLVKSTSVLKIKGSFSKLNNDPGF,soluble
15,MGSDKIHHHHHHISNNLANSSTIGYKTSNASFYSLVTGTGSTSNFTGAGVVASATQNVINQGVIVGTQNVTDLAVDGKGMFIVTDRSGSNELYYTRAGDFYPNADGDLVNSNNYYLQGYPTDRNGVPLTNTGNSGASLETINLAGATGAAKATSEMSIQAVLPAQATAGDSTAVPPVAAYTSSSDVEIYDSLGVAHTMTVKWTKMSDTKWTMTLYDPKLSSDMTGDATGAISSTTTGVTDVPANAGPPATSHGIAVDVEFTDQGLLKTPSVLALKITPDASNGTGAAISEIALNLGTAGKANGLSTYSNEDSDGKPAVDLKKVVQDGVTYGTYYSNTISKAGLVYANFTNGISYPIYQVPLAMFSNVNGLEAVSGTAYSATVKSGTPTYVTAGTGGSGGVSSGSVESSTVDTAAEFSKLIVSQQAYSAATQIISSNQEMFQNLISAKR,not soluble
16,MNSEIFRIFRKKYSEEIRNPPMNATTLPEALKLMQYIGDAIGTIRDPQELFRTVTDKLRLLFAFDSAVIITIDRERREASVFFEMLRFELPEQLRHQTRSIAGTWLEGHLDDRTVTVASIARDIPSFGADGAPLLWTLHELGMRQIVLSPLRSGGRVIGFLSFVSAEEKLWSDGDKSLLSGVSSSIAIAVSNALAYEELRQRE,not soluble
17,MVGIHQEVWLEVDLEFTKKMKIPVVRRDLGGGTVVITPGEHDYFIVVRQEDAPRNPSELYKKFLTPIVNVLRSYGLKADLRDQDIVVNGKKISGNGAMTHGNSIVIAGNILLSLDIDL,soluble

# Source: the DeepSol protein solubility set
